Source: publication PMC3143253
pKd: −log10 of the molar value. Where two headings read alike, the source gives them in different places.

Experiments:
calmodulin = calmodulin (UniProt P0DP23); assay: ITC
IAEDANS-labeled CaM-K75C [1] = target: IAEDANS-labeled CaM-K75C (UniProt P0DP23); assay: other fluorescence titration
IAEDANS-labeled CaM-K75C [2] = target: IAEDANS-labeled CaM-K75C (UniProt P0DP23); assay: other fluorescence titration; remark: listed apart in the source
[3] = target: TMR-conjugated CLS-S329C, reconstituted in liposomes (human); assay: other fluorescence titration

Ka (calmodulin) [M⁻¹] | pKd (calmodulin) | dH (calmodulin) [kcal/mol] | stoichiometry N (calmodulin) | pKd (IAEDANS-labeled CaM-K75C [1]) | pKd (IAEDANS-labeled CaM-K75C [2]) | pKd [3] | Substance
204000 | 5.31 | -0.77 | 0.92 | 5.68 | 5.60 | – | ARR18 peptide (entire cytoplasmic domain of human L-selectin)
– | – | – | – | – | – | 5.77 | calmodulin (from UniProt P0DP23 1-149) (natural protein)
